# Results published in PMC6858323 (2019).
# B1: PilT^Pa two-hybrid fusion from pKT25::PilT^Pa (wild type) [Pseudomonas aeruginosa] / PilC^Pa two-hybrid fusion from pUT18C::PilC^Pa [Pseudomonas aeruginosa] (parent complex)
# chain 1: MDITELLAFSAKQGASDLHLSAGLPPMIRVDGDVRRINLPPLEHKQVHALIYDIMNDKQRKDFEEFLETDFSFEVPGVARFRVNAFNQNRGAGAVFRTIPSKVLTMEELGMGEVFKRVSDVPRGLVLVTGPTGSGKSTTLAAMLDYLNNTKYHHILTIEDPIEFVHESKKCLVNQREVHRDTLGFSEALRSALREDPDIILVGEMRDLETIRLALTAAETGHLVFGTLHTTSAAKTIDRVVDVFPAEEKAMVRSMLSESLQSVISQTLIKKIGGGRVAAHEIMIGTPAIRNLIREDKVAQMYSAIQTGGSLGMQTLDMCLKGLVAKGLISRENAREKAKIPENF
# chain 2: MLVKAHLRKQGINPLKVRKKGISLLGAGKKVKPMDIALFTRQMATMMGAGVPLLQSFDIIGEGFDNPNMRKLVDEIKQEVSSGNSLANSLRKKPQYFDELYCNLVDAGEQSGALENLLDRVATYKEKTESLKAKIRKAMTYPIAVIIVALIVSAILLIKVVPQFQSVFQGFGAELPAFTQMVVNLSEFLQEWWLAVIVGVGAIGFTFKELHKRSKKFRDTLDRTILKLPIFGGIVYKSAVARYARTLSTTFAAGVPLVDALDSVSGATGNIVFKNAVSKIKQDVSTGMQLNFSMRTTSVFPNMAIQMTAIGEESGSLDEMLSKVASYYEEEVDNAVDNLTTLMEPMIMAVLGVLVGGLIVAMYLPIFQLGNVVG
# Variants of: B1
# Assay: bacterial two-hybrid (BACTH), β-galactosidase activity; E. coli BTH101; n = 3; parent: 650; read off a plot
row,Variant,response
1,chain 1 MDITELLAFSAKQGASDLHLSAGLPPMIRVDGDVRRINLPPLEHKQVHALIYDIMNDKQRKDFEEFLETDFSFEVPGVARFRVNAFNQNRGAGAVFRTIPSKVLTMEELGMGEVFKRVSDVPRGLVLVTGPTGSGKSTTLAAMLDYLNNTKYHHILTIEDPIEFVHESKKCLVNQREVHRDTLGFSEALRSALREDPDIILVGEMRDLETIRLALTAAETGHLVFGTLHTTSAAKTIDAVVDVFPAEEKAMVRSMLSESLQSVISQTLIKKIGGGRVAAHEIMIGTPAIRNLIREDKVAQMYSAIQTGGSLGMQTLDMCLKGLVAKGLISRENAREKAKIPENF [chain 1 R239A],~490 Miller units
2,chain 1 MDITELLAFSAKQGASDLHLSAGLPPMIRVDGDVRRINLPPLEHKQVHALIYDIMNDKQRKDFEEFLETDFSFEVPGVARFRVNAFNQNRGAGAVFRTIPSKVLTMEELGMGEVFKRVSDVPRGLVLVTGPTGSGKSTTLAAMLDYLNNTKYHHILTIEDPIEFVHESKKCLVNQREVHRDTLGFSEALRSALREDPDIILVGEMRDLETIRLALTAAKTGHLVFGTLHTTSAAKTIDRVVDVFPAEEKAMVRSMLSESLQSVISQTLIKKIGGGRVAAHEIMIGTPAIRNLIREDKVAQMYSAIQTGGSLGMQTLDMCLKGLVAKGLISRENAREKAKIPENF [chain 1 E219K],~230 Miller units
3,chain 1 MDITELLAFSAKQGASDLHLSAGLPPMIRVDGDVRRINLPPLEHKQVHALIYDIMNDKQRKDFEEFLETDFSFEVPGVARFRVNAFNQNRGAGAVFRTIPSKVLTMEELGMGEVFKRVSDVPRGLVLVTGPTGSGKSTTLAAMLDYLNNTKYHHILTIEDPIEFVHESKKCLVNQREVHRDTLGFSEALRSALREDPDIILVGEMRDLETIRLALRAAETGHLVFGTLHTTSAAKTIDRVVDVFPAEEKAMVRSMLSESLQSVISQTLIKKIGGGRVAAHEIMIGTPAIRNLIREDKVAQMYSAIQTGGSLGMQTLDMCLKGLVAKGLISRENAREKAKIPENF [chain 1 T216R],~700 Miller units
4,chain 1 MDITELLAFSAKQGASDLHLSAGLPPMIRVDGDVRRINLPPLEHKQVHALIYDIMNDKQRKDFEEFLETDFSFEVPGVARFRVNAFNQNRGAGAVFRTIPSKVLTMEELGMGEVFKRVSDVPRGLVLVTGPTGSGKSTTLAAMLDYLNNTKYHHILTIEDPIEFVHESKKCLVNQREVHRDTLGFSEALRSALREDPDIILVGEMRDLETIRLALTAAETGHLVFGTLHTTSAAKTIDRVVDVFPAEEKAMVRSMLSESLQSVISQTLIKKIGGGRVAAHEIMIGTPAIRNLIEEDKVAQMYSAIQTGGSLGMQTLDMCLKGLVAKGLISRENAREKAKIPENF [chain 1 R294E],~200 Miller units
5,chain 1 MDITELLAFSAKQGASDLHLSAGLPPMIRVDGDVRRINLPPLEHKQVHALIYDIMNDKQRKDFEEFLETDFSFEVPGVARFRVNAFNQNRGAGAVFRTIPSKVLTMEELGMGEVFKRVSDVPRGLVLVTGPTGSGKSTTLAAMLDYLNNTKYHHILTIEDPIEFVHESKKCLVNQREVHRDTLGFSEALRSALREDPDIILVGEMRDLETIRLALTAAETGHLVFGTLHTTSAAKTIDRVVDVFPAEEKAMVRSMLSASLQSVISQTLIKKIGGGRVAAHEIMIGTPAIRNLIREDKVAQMYSAIQTGGSLGMQTLDMCLKGLVAKGLISRENAREKAKIPENF [chain 1 E258A],~850 Miller units
6,chain 1 MDITELLAFSAKQGASDLHLSAGLPPMIRVDGDVRRINLPPLEHKQVHALIYDIMNDKQRKDFEEFLETDFSFEVPGVARFRVNAFNQNRGAGAVFRTIPSKVLTMEELGMGEVFKRVSDVPDGLVLVTGPTGSGKSTTLAAMLDYLNNTKYHHILTIEDPIEFVHESKKCLVNQREVHRDTLGFSEALRSALREDPDIILVGEMRDLETIRLALTAAETGHLVFGTLHTTSAAKTIDRVVDVFPAEEKAMVRSMLSESLQSVISQTLIKKIGGGRVAAHEIMIGTPAIRNLIREDKVAQMYSAIQTGGSLGMQTLDMCLKGLVAKGLISRENAREKAKIPENF [chain 1 R123D],~140 Miller units
7,chain 1 MDITELLAFSAKQGASDLHLSAGLPPMIRVKGDVRRINLPPLEHKQVHALIYDIMNDKQRKDFEEFLETDFSFEVPGVARFRVNAFNQNRGAGAVFRTIPSKVLTMEELGMGEVFKRVSDVPRGLVLVTGPTGSGKSTTLAAMLDYLNNTKYHHILTIEDPIEFVHESKKCLVNQREVHRDTLGFSEALRSALREDPDIILVGEMRDLETIRLALTAAETGHLVFGTLHTTSAAKTIDRVVDVFPAEEKAMVRSMLSESLQSVISQTLIKKIGGGRVAAHEIMIGTPAIRNLIREDKVAQMYSAIQTGGSLGMQTLDMCLKGLVAKGLISRENAREKAKIPENF [chain 1 D31K],~220 Miller units
8,chain 1 MDITELLAFSAKQGASDLHLSAGLPPMIRVDGDVRRINLPPLEHKQVHALIYDIMNDQQRKDFEEFLETDFSFEVPGVARFRVNAFNQNRGAGAVFRTIPSKVLTMEELGMGEVFKRVSDVPRGLVLVTGPTGSGKSTTLAAMLDYLNNTKYHHILTIEDPIEFVHESKKCLVNQREVHRDTLGFSEALRSALREDPDIILVGEMRDLETIRLALTAAETGHLVFGTLHTTSAAKTIDRVVDVFPAEEKAMVRSMLSESLQSVISQTLIKKIGGGRVAAHEIMIGTPAIRNLIREDKVAQMYSAIQTGGSLGMQTLDMCLKGLVAKGLISRENAREKAKIPENF [chain 1 K58Q],~630 Miller units
9,chain 1 MDITELLAFSAKQGASDLHLSAGLPPMIRVDGDVRRINLPPLEHKQVHALIYDIMNDAQRKDFEEFLETDFSFEVPGVARFRVNAFNQNRGAGAVFRTIPSKVLTMEELGMGEVFKRVSDVPRGLVLVTGPTGSGKSTTLAAMLDYLNNTKYHHILTIEDPIEFVHESKKCLVNQREVHRDTLGFSEALRSALREDPDIILVGEMRDLETIRLALTAAETGHLVFGTLHTTSAAKTIDRVVDVFPAEEKAMVRSMLSESLQSVISQTLIKKIGGGRVAAHEIMIGTPAIRNLIREDKVAQMYSAIQTGGSLGMQTLDMCLKGLVAKGLISRENAREKAKIPENF [chain 1 K58A],~700 Miller units
10,chain 1 MDITELLAFSAKQGASDLHLSAGLPPMIRVDGDVRRINLPPLEHKQVHALIYDIMNDRQRKDFEEFLETDFSFEVPGVARFRVNAFNQNRGAGAVFRTIPSKVLTMEELGMGEVFKRVSDVPRGLVLVTGPTGSGKSTTLAAMLDYLNNTKYHHILTIEDPIEFVHESKKCLVNQREVHRDTLGFSEALRSALREDPDIILVGEMRDLETIRLALTAAETGHLVFGTLHTTSAAKTIDRVVDVFPAEEKAMVRSMLSESLQSVISQTLIKKIGGGRVAAHEIMIGTPAIRNLIREDKVAQMYSAIQTGGSLGMQTLDMCLKGLVAKGLISRENAREKAKIPENF [chain 1 K58R],~750 Miller units
11,chain 1 MDITELLAFSAKQGASDLHLSAGLPPMIRVDGDVRRINLPPLEHKQVHALIYDIMNDKQRKDFEEFLETDFSFEVPGVARFRVNAFNQNRGAGAVFRTIPSKVLTMEELGMGEVFKRVSDVPRGLVLVTGPTGSGKSTTLAAMLDYLNNTKYHHILTIEDPIEFVHESKKCLVNQREVHRDTLGFSEALRSALREDPDIILVGEMRDLETIRLALTAAETGHLVFGTLHTTSAAKTIDRVVKVFPAEEKAMVRSMLSESLQSVISQTLIKKIGGGRVAAHEIMIGTPAIRNLIREDKVAQMYSAIQTGGSLGMQTLDMCLKGLVAKGLISRENAREKAKIPENF [chain 1 D242K],~670 Miller units
